Test results: paper PMC10507807, “De novo design of a stapled peptide targeting SARS-CoV-2 spike protein receptor-binding domain” (RSC Medicinal Chemistry, 2023)

Target: recombinant SARS-CoV-2 spike B.1.617.2 with His-tag (SARS-CoV-2), P0DTC2
Assay: BLI

Binder: GTEWLYKVWKAFVDNMS (designed binder, modifications not checked) [stapled peptide pep39]
- Kd: 4.1 µM
